US20220380739A1 (Boehringer Ingelheim, published 2022)
Substitutions are numbered along the chain they refer to. Where two headings read alike, the source gives them in different places. One block for each binder: values may come before it.

Columns and labels:
6H-GSG-VDVAD-BIWA4 [1] = assay: cell-based or functional assay
6H-GSG-VDVAD-BIWA4 [2] = assay: cell-based or functional assay; remark: listed apart in the source

Chain of 6H-GSG-VDVAD-BIWA4 (scFv, as listed by the source): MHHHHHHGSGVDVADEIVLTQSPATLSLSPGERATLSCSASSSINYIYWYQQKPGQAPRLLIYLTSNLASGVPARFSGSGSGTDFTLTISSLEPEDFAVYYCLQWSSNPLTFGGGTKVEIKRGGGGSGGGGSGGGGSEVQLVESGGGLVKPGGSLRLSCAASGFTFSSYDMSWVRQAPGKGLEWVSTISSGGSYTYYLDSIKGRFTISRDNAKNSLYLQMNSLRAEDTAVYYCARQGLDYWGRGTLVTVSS

KM (6H-GSG-VDVAD-BIWA4 [1]): 0.00016
KM (6H-GSG-VDVAD-BIWA4 [2]): 0.00016
B1: T7AC_6H_mS9ProE (enzyme)
chain: MLEDPERNKERKEAELQAQTAEQHHHHHHGKNHAGSPGCEESAAGKEKLPKMRLPTRSDMICGYACLKGTAAMRNTKRGSWYIEALAQVFSERACDMHVADMLVKVNALIKDREGYAPGTEFHRCKVMSEYCSTLCRHLYLFPGHPPTGSGPVCLQVKPCTPEFYQTHFQLAYRLQSRPRGLALVLSNVHFTDEKELEFRSGGDVDHSTLVTLFKLLGYDVHVLCDQTAQEMQEKLQNFAQLPAHRGTDSCIVALLSHGVEGAIYGVDGKLLQLQEVFQLFDNANCPSLQNKPKMFFIQACRGEETERGVDQQD

KM (6H-GSG-VDVAD-BIWA4 [1]): 0.00023
KM (6H-GSG-VDVAD-BIWA4 [2]): 0.00023
B2: T7AC_6H_mS9ProD (enzyme)
chain: B1 chain with E307D
